This is an account of results in patent US10941182 (Amgen, dated 2021).

Starred links: 1 amine or outer side, 2 acyl side, 3 side chain; linkers in the order of their positions; H or OH if unused. Non-standard residues stand in square brackets, D forms with d. *: point of attachment. PEG12 = NCCOCCOCCOCCOCCOCCOCCOCCOCCOCCOCCOCCOCCC(=O)O; Oic = O=C(O)[C@@H]1C[C@@H]2CCCC[C@@H]2N1; Phe(4-Cl) = N[C@@H](Cc1ccc(Cl)cc1)C(=O)O; γGlu = O=C(O)[C@H](CCC(=O)[*:2])N[*:1]; NMeR = CN[C@@H](CCCNC(=N)N)C(=O)O; Tridecanoyl = CCCCCCCCCCCCC(=O)*; Cha = N[C@@H](CC1CCCCC1)C(=O)O; Nle = CCCC[C@H](N)C(=O)O; AEEA = NCCOCCOCC(=O)O; Aib = CC(C)(N)C(=O)O

The chains are these.
T1: human APJ receptor (human, UniProt P35414 1-380)
T1 sequence (looked up): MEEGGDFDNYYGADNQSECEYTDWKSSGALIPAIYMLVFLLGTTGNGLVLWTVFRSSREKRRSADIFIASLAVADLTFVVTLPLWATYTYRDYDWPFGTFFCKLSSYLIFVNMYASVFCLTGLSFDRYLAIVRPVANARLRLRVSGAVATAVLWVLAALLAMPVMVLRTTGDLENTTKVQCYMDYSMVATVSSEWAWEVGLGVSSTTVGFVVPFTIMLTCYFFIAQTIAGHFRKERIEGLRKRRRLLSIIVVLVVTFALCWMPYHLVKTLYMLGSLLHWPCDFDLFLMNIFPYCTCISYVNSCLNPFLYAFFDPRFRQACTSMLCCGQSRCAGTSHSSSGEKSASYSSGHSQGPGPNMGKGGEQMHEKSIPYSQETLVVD

T2: rat APJ receptor (rat, UniProt Q9JHG3 1-377)
T2 sequence (looked up): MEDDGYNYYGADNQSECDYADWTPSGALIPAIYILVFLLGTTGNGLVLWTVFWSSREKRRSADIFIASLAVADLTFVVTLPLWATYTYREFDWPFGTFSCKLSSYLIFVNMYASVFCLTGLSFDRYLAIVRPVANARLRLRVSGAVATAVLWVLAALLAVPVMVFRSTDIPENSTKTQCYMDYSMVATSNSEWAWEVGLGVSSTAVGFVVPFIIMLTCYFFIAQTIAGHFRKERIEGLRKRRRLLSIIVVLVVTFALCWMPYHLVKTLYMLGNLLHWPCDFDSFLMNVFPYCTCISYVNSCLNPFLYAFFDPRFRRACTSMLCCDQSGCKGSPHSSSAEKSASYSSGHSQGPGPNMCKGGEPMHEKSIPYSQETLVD

B1: Acetylated version of peptide in Fc-peptide conjugate #1 (SEQ ID NO: 70) (peptide)
peptide: QRPRLSHKGPXPF
modifications: {Acetyl-NH}Q[r]P[hArg][aMeLeu]SHKGP[Nle] P[4-Cl-F]{COOH}: N-terminal acetyl; r = D-Arg; hArg, aMeLeu, Nle, 4-Cl-F non-canonical; free C-terminal acid
B2: Acetylated version of peptide in Fc-peptide conjugate #3 (SEQ ID NO: 95) (peptide)
peptide: QRPRLSHKGPXPF
modifications: {Acetyl-NH}Q[NMehArg]P[NMeArg][aMeLeu]SHKGP[Nle]P[4-Cl-F]{COOH: N-terminal acetyl; NMehArg, NMeArg, aMeLeu, Nle, 4-Cl-F non-canonical; free C-terminal acid
B3: modified apelin polypeptide SEQ ID NO: 337 (peptide)
peptide: Tridecanoyl-[γGlu][AEEA][AEEA]RQRPK[Cha]SH[Nle]G[Oic][Nle]P[Phe(4-Cl)]-OH
SMILES: CCCCCCCCCCCCC(=O)N[C@@H](CCC(=O)NCCOCCOCC(=O)NCCOCCOCC(=O)N[C@@H](CCCNC(=N)N)C(=O)N[C@@H](CCC(N)=O)C(=O)N[C@@H](CCCNC(=N)N)C(=O)N1CCC[C@H]1C(=O)N[C@@H](CCCCN)C(=O)N[C@@H](CC1CCCCC1)C(=O)N[C@@H](CO)C(=O)N[C@@H](Cc1c[nH]cn1)C(=O)N[C@@H](CCCC)C(=O)NCC(=O)N1[C@H](C(=O)N[C@@H](CCCC)C(=O)N2CCC[C@H]2C(=O)N[C@@H](Cc2ccc(Cl)cc2)C(=O)O)C[C@@H]2CCCC[C@@H]21)C(=O)O
B4: modified apelin polypeptide SEQ ID NO: 539 (peptide)
peptide: Tridecanoyl-[γGlu][PEG12][dQ]RP[NMeR][Cha]SHKG[Oic][Nle][Aib][Phe(4-Cl)]-OH
SMILES: CCCCCCCCCCCCC(=O)N[C@@H](CCC(=O)NCCOCCOCCOCCOCCOCCOCCOCCOCCOCCOCCOCCOCCC(=O)N[C@H](CCC(N)=O)C(=O)N[C@@H](CCCNC(=N)N)C(=O)N1CCC[C@H]1C(=O)N(C)[C@@H](CCCNC(=N)N)C(=O)N[C@@H](CC1CCCCC1)C(=O)N[C@@H](CO)C(=O)N[C@@H](Cc1c[nH]cn1)C(=O)N[C@@H](CCCCN)C(=O)NCC(=O)N1[C@H](C(=O)N[C@@H](CCCC)C(=O)NC(C)(C)C(=O)N[C@@H](Cc2ccc(Cl)cc2)C(=O)O)C[C@@H]2CCCC[C@@H]21)C(=O)O
B5: modified apelin polypeptide SEQ ID NO: 538 (peptide)
peptide: Tridecanoyl-[dD][AEEA][AEEA][dQ]RP[NMeR][Cha]SHKG[Oic][Nle][Aib][Phe(4-Cl)]-OH
SMILES: CCCCCCCCCCCCC(=O)N[C@H](CC(=O)O)C(=O)NCCOCCOCC(=O)NCCOCCOCC(=O)N[C@H](CCC(N)=O)C(=O)N[C@@H](CCCNC(=N)N)C(=O)N1CCC[C@H]1C(=O)N(C)[C@@H](CCCNC(=N)N)C(=O)N[C@@H](CC1CCCCC1)C(=O)N[C@@H](CO)C(=O)N[C@@H](Cc1c[nH]cn1)C(=O)N[C@@H](CCCCN)C(=O)NCC(=O)N1[C@H](C(=O)N[C@@H](CCCC)C(=O)NC(C)(C)C(=O)N[C@@H](Cc2ccc(Cl)cc2)C(=O)O)C[C@@H]2CCCC[C@@H]21
B6: modified apelin polypeptide SEQ ID NO: 537 (peptide)
peptide: Tridecanoyl-E[AEEA][AEEA][dQ]RP[NMeR][Cha]SHKG[Oic][Nle][Aib][Phe(4-Cl)]-OH
SMILES: CCCCCCCCCCCCC(=O)N[C@@H](CCC(=O)O)C(=O)NCCOCCOCC(=O)NCCOCCOCC(=O)N[C@H](CCC(N)=O)C(=O)N[C@@H](CCCNC(=N)N)C(=O)N1CCC[C@H]1C(=O)N(C)[C@@H](CCCNC(=N)N)C(=O)N[C@@H](CC1CCCCC1)C(=O)N[C@@H](CO)C(=O)N[C@@H](Cc1c[nH]cn1)C(=O)N[C@@H](CCCCN)C(=O)NCC(=O)N1[C@H](C(=O)N[C@@H](CCCC)C(=O)NC(C)(C)C(=O)N[C@@H](Cc2ccc(Cl)cc2)C(=O)O)C[C@@H]2CCCC[C@@H]21
B7: modified apelin polypeptide SEQ ID NO: 341 (peptide)
peptide: Tridecanoyl-[γGlu][AEEA][AEEA]RQRPK[Cha]SA[Nle]G[Oic][Nle]P[Phe(4-Cl)]-OH
SMILES: CCCCCCCCCCCCC(=O)N[C@@H](CCC(=O)NCCOCCOCC(=O)NCCOCCOCC(=O)N[C@@H](CCCNC(=N)N)C(=O)N[C@@H](CCC(N)=O)C(=O)N[C@@H](CCCNC(=N)N)C(=O)N1CCC[C@H]1C(=O)N[C@@H](CCCCN)C(=O)N[C@@H](CC1CCCCC1)C(=O)N[C@@H](CO)C(=O)N[C@@H](C)C(=O)N[C@@H](CCCC)C(=O)NCC(=O)N1[C@H](C(=O)N[C@@H](CCCC)C(=O)N2CCC[C@H]2C(=O)N[C@@H](Cc2ccc(Cl)cc2)C(=O)O)C[C@@H]2CCCC[C@@H]21)C(=O)O
B8: modified apelin polypeptide SEQ ID NO: 346 (peptide)
peptide: Tridecanoyl-[γGlu][AEEA][AEEA]RQRPK[Cha]AA[Nle]G[Oic][Nle]P[Phe(4-Cl)]-OH
SMILES: CCCCCCCCCCCCC(=O)N[C@@H](CCC(=O)NCCOCCOCC(=O)NCCOCCOCC(=O)N[C@@H](CCCNC(=N)N)C(=O)N[C@@H](CCC(N)=O)C(=O)N[C@@H](CCCNC(=N)N)C(=O)N1CCC[C@H]1C(=O)N[C@@H](CCCCN)C(=O)N[C@@H](CC1CCCCC1)C(=O)N[C@@H](C)C(=O)N[C@@H](C)C(=O)N[C@@H](CCCC)C(=O)NCC(=O)N1[C@H](C(=O)N[C@@H](CCCC)C(=O)N2CCC[C@H]2C(=O)N[C@@H](Cc2ccc(Cl)cc2)C(=O)O)C[C@@H]2CCCC[C@@H]21)C(=O)O
B9: modified apelin polypeptide SEQ ID NO: 547 (peptide)
peptide: Tridecanoyl-[dE][AEEA][AEEA][dQ]RP[NMeR][Cha]SHKG[Oic][Nle][Aib][Phe(4-Cl)]-OH
SMILES: CCCCCCCCCCCCC(=O)N[C@H](CCC(=O)O)C(=O)NCCOCCOCC(=O)NCCOCCOCC(=O)N[C@H](CCC(N)=O)C(=O)N[C@@H](CCCNC(=N)N)C(=O)N1CCC[C@H]1C(=O)N(C)[C@@H](CCCNC(=N)N)C(=O)N[C@@H](CC1CCCCC1)C(=O)N[C@@H](CO)C(=O)N[C@@H](Cc1c[nH]cn1)C(=O)N[C@@H](CCCCN)C(=O)NCC(=O)N1[C@H](C(=O)N[C@@H](CCCC)C(=O)NC(C)(C)C(=O)N[C@@H](Cc2ccc(Cl)cc2)C(=O)O)C[C@@H]2CCCC[C@@H]21
B10: modified apelin polypeptide SEQ ID NO: 507 (peptide)
peptide: XXQRPRLSHKGPXPF
modifications: {TDA} [Aeea] [Aeea] Q R P [NMeArg] L S H K G P [Nle] P [4-Cl-F] {COOH}: N-terminal tridecanoyl (TDA)-Aeea-Aeea; NMeArg, Nle, 4-Cl-F non-canonical; free C-terminal acid
B11: modified apelin polypeptide SEQ ID NO: 511 (peptide)
peptide: XXXQRPRLSHKGPXPF
modifications: {TetDDA} [AC4Abu] [Aeea] [Aeea] Q R P [NMeArg] L S H K G P [Nle] P [4-Cl-F] {COOH}: N-terminal tetradecanedioyl (TetDDA)-gammaGlu (AC4Abu)-Aeea-Aeea; NMeArg, Nle, 4-Cl-F non-canonical; free C-terminal acid

In the first assay the target is T1, human APJ receptor. Put plainly: cell-based or functional assay.
Ac-QRP[NMeR][Cha]SHKG[Oic][Nle][Aib][Phe(4-Cl)]-OH [Acetylated version of peptide in Fc-peptide conjugate #4 (SEQ ID NO: 92)]: the “EC50 Human APJ Receptor (µM), GTPγS assay” value (“EC50 Human APJ Receptor (µM)” below) was determined as 0.000679 µM.

Another assay has as its target T2, rat APJ receptor. Put plainly: cell-based or functional assay.
Turning to Ac-QRP[NMeR][Cha]SHKG[Oic][Nle][Aib][Phe(4-Cl)]-OH [Acetylated version of peptide in Fc-peptide conjugate #4 (SEQ ID NO: 92)], the “EC50 Rat APJ Receptor (µM), GTPγS assay” value stood at 0.00323 µM. Still for that read-out and setting: the same measure for B1: 0.00974 µM. The same measure, in the same setting: the same measure for B2: 0.00393 µM.

The target of the next assay is T1, human APJ receptor. Put plainly: cell-based or functional assay. The source holds these as a separate data set.
As for B3, the “EC50 Human APJ Receptor (µM)” value stood at 0.00208 µM. Turning to B4, the “EC50 Human APJ Receptor (µM)” value worked out at 0.000735 µM. On the same count and under the same terms, to B5 belongs 0.000525 µM. Still for that read-out and setting: the same measure for B6: 0.00028 µM. As to B7, the “EC50 Human APJ Receptor (µM)” value came out at 0.000561 µM.

Consider Tridecanoyl-D[AEEA][AEEA][dQ]RP[NMeR][Cha]SHKG[Oic][Nle][Aib][Phe(4-Cl)]-OH [modified apelin polypeptide SEQ ID NO: 546], for which the “EC50 Human APJ Receptor (µM)” value stood at 0.000478 µM. With B8, the “EC50 Human APJ Receptor (µM)” value was determined as 0.00277 µM. Still for that read-out and setting: to B9 belongs 0.000404 µM. The same measure, in the same setting: the same measure for B10: 7.95e-05 µM.

The next assay addresses T2, rat APJ receptor. Put plainly: cell-based or functional assay. The source holds these as a separate data set.
Regarding B3, the “EC50 Rat APJ Receptor (µM), GTPγS assay” value came out at 0.00212 µM.

In the case of B11, the “EC50 Rat APJ Receptor (µM), GTPγS assay” value is 0.000968 µM. On to B4, for which the “EC50 Rat APJ Receptor (µM), GTPγS assay” value stood at 0.00354 µM.

Consider B5, for which the “EC50 Rat APJ Receptor (µM), GTPγS assay” value is 0.00189 µM. Same read-out and setting: the same measure for B6: 0.00108 µM; for B7: 0.00127 µM.

Take Tridecanoyl-D[AEEA][AEEA][dQ]RP[NMeR][Cha]SHKG[Oic][Nle][Aib][Phe(4-Cl)]-OH [modified apelin polypeptide SEQ ID NO: 546]: the “EC50 Rat APJ Receptor (µM), GTPγS assay” value came out at 0.00123 µM. Still for that read-out and setting: the same measure for B8: 0.00246 µM; for B9: 0.00133 µM; for B10: 0.000245 µM.
